In patent US20190322729A1:

Experiments:
[1] = test system: T1, unmodified H1.0 peptide AKPVKASKPKKAKPVKPK
T1 sequence: AKPVKASKPKKAKPVKPK

[2] = test system: T2, H1.0K180me2 peptide AKPVKASKPKKAKPVK(me2)PK
T2 sequence: AKPVKASKPKKAKPVKPK

| Substance | in vitro methylation with tritium-labeled methyl donor, autoradiography [1] | in vitro methylation, LC-MS spectral counts: share of peptides dimethylated at K180 [1] | in vitro methylation, LC-MS: further methylated product H1.0K166me1K180me2 [2] | in vitro methylation, LC-MS: further methylated product H1.0K174me1K180me3 [2] | in vitro methylation, LC-MS: further methylated product H1.0K174me3K175me3K177me1K180me2 [2] | in vitro methylation, LC-MS: share of peptides further methylated [2] |
| --- | --- | --- | --- | --- | --- | --- |
| G9A methyltransferase (recombinant, NEB M0235S) | The appearance of a band at 4 kDa shows that The G9A methyltransferase capable of methylating H1.0 peptide | 99.9% of all peptides | 1.27% of the total peptide in the reaction | 1.06% of the total peptide in the reaction | 0.35% of the total peptide in the reaction | only 2.64% of peptides are further methylated |
| GLP methyltransferase (recombinant, Cayman Chemical 10755) | – | 96.6% of all peptides | – | – | – | 1.02% of peptides are further methylated |
